# Test results from patent US8927207B2, “miRNAs as therapeutic targets in cancer” (Research Foundation of State University of New York, priority 2008, dated 2015).
# Legend:
# p21 [1] = assay: Western immunoblot of cell cycle control genes, HCT-116 (wt-p53); type: cell-based, human; details: 48 hours after transfection
# Protocol: (§1) miR-192 expression is dependent on p53. To further analyze the cell cycle control genes involved in miR-192 overexpression, a number of cell cycle control genes were analyzed (p53, p21, Bax, E2F3, Rb). HCT-116 (wt-p53) cells (FIG. 6A) and RKO (wt-p53) cells (FIG. 6B), as described above (see Example 3), were transfected with non-specific miR (FIG. 6A, lane 2; and FIG. 6B, lane 1), DHFR siRNA (FIG. 6A, lane 3; and FIG. 6B, lane 2) and miR-192 (FIG. 6A, lane 4; and FIG. 6B, lane 3) according to the procedure discussed above (see Examples 1 and 2). Non-transfected HCT-116 (wt-p53) was used as a negative control (FIG. 6A, lane 1). Alpha-tubulin was used as a protein loading control.
# Bax = assay: as above; type: cell-based, human; details: 48 hours after transfection
# Protocol: as §1
# p53 = assay: as above; type: cell-based, human; details: 48 hours after transfection
# Protocol: as §1
# p21 [2] = assay: western immunoblot of p21 in HCT-116 (wt-p53) and U-2 OS cells; type: cell-based; details: both HCT-116 (wt-p53) and U-2 OS cells, 48 h after transfection
# Text: miR-215 increases the expression of cell cycle control genes p53 and p21. p53 and p21, a downstream target of the p53 pathway of growth control, are reported to block cells at G2 checkpoint mainly through inhibiting activity of Cdc2, the cyclin-dependent kinase that normally drives cells into mitosis, which is the ultimate target of pathways that mediate rapid arrest in G2 in response to DNA damage. To further analyze the mechanism of cell proliferation inhibition by miR-215, we transfected miR-215 precursor into HCT-116 (wt-p53) and U-2 OS cells, and evaluated the levels of cell cycle control genes p53 and p21 by western immunoblot analysis.
# HCT-116 (null-p53) cells [3] = assay: cell cycle analysis by flow cytometry; type: cell-based, human
# Protocol: To determine whether the miR-192's impact on cellular proliferation was related to cell cycle control, the effect on cell cycle control was analyzed by flow cytometry using HCT-116 (wt-p53) (FIG. 5A) and HCT-116 (null-p53) (FIG. 5B) cells transfected with non-specific control miR (left line graph) or miR-192 (right line graph). This experiment was performed as follows. The HCT-116 (wt-p53) and HCT-116 (null-p53) cells lines as described above (see Example 3) were transfected with miR-192 precursor and the non-specific control miRNA described as above (see Examples 1 and 2). At 36 hours after transfection, the cells were harvested and resuspended at 0.5-1×10^5 cells/ml in modified Krishan buffer containing 0.1% sodium citrate and 0.3% NP-40 and kept at 4° C. Before being analyzed by flow cytometry, cells were treated with 0.02 mg/ml RNase H and stained with 0.05 mg/ml propidium iodide (Sigma).
# HT-29 (mut-p53) cells = assay: WST-1 cellular proliferation after miR-192 transfection; type: cell-based, human; details: HT-29, n=3
# Protocol: (§2) miR-192 inhibits cell proliferation of HCT-116 (wt-p53), RKO (wt-p53) and HT-29 (mut-p53) colon cancer cell lines. To assess the functional significance of miR-192, the impact of miR-192 on cellular proliferation was evaluated using HCT-116 (wt-p53), HCT-116 (null-p53), RKO (wt-p53) and HT-29 (mut-p53) colon cancer cell lines. The human colon cancer cell lines HCT-116 (wt-p53) and HCT-116 (null-p53) were provided by Prof Bert Vogelstein (The Johns Hopkins University) and were maintained in McCoy's 5A medium (Life Technologies). The other two human colon cancer cell lines, RKO (wt-p53) and HT-29 (mut-p53), were obtained from the American Type Culture Collection. The HT-29 (mut-p53) cell line has a missense mutation in codon 273 of p53 resulting in an Argto-His substitution. RKO (wt-p53) and HT-29 (mut-p53) cells were maintained in Eagle's MEM and Iscove's Modified Dulbecco's Medium at the American Type Culture Collection, respectively. All media were supplemented with 10% dialyzed fetal bovine serum (Hyclone Laboratories). All cell lines were grown at 37° C. in a humidified incubator with 5% CO2. The cell lines were transfected as described above (see Examples 1 and 2).
# (§3) The cellular proliferation was evaluated as follows. HCT-116 (wt-p53) (FIG. 4A), HCT-116 (null-p53) (FIG. 4C), RKO (wt-p53) (FIG. 4B), and HT-29 cells (FIG. 4D) were plated in 96-well plates in triplicate at 1×10^3 cells per well after transfection with miR-192 precursor (illustrated as—Δ—) or non-specific control miRNA (illustrated as—□—). Cells were cultured for 24, 48, 72, or 96 hours. The absorbance at 450 and 630 nm was measured after incubation with 10 μl of WST-1 for 2 hours. A non-specific miR was used as a negative control.
# HCT-116 (null-p53) cells [4] = assay: as above; type: cell-based, human; details: n=3
# Protocol: as §2, §3
# RKO (wt-p53) cells = assay: as above; type: cell-based, human; details: n=3
# Protocol: as §2, §3
# HCT-116 (wt-p53) cells = assay: as above; type: cell-based, human; details: overexpression vs non-specific miR, n=3
# Protocol: as §2, §3
# Rb = assay: Western immunoblot of Rb, HCT-116 (wt-p53); type: cell-based, human
# Protocol: The expression of miR-192 on the expression of E2F3 and Rb in HCT-116 (wt-p53) cells was also analyzed. In these experiments, HVT-116 (wt-p53) cells, as described above (see Example 3) were transfected with non-specific miR (FIG. 7, lane 2), DHFR siRNA (FIG. 7, lane 3) or miR-192 (FIG. 7, lane 4) according to the procedure described above (see Examples 1 and 2). One HCT-116 (wt-p53) sample was not transfected, and used as a negative control (FIG. 7, lane 1). Western immunoblot analysis was performed according to the procedure described above (see Example 5), except that rabbit anti-E2F-3 polyclonal antibody (1:1000, C-18) (Santa Cruz Biotechnology) was used.
# TS mRNA = assay: real time qRT-PCR of TS mRNA; type: cell-based; details: U-2 OS cells
# Protocol: Expression levels of TS or DHFR mRNA were analyzed using real time qRT-PCR analysis (FIG. 15).
# [5] = HCT-116 (null), 36 hours after transfection
molecule,measurement,setting,value
"miR-192: microRNA miR-192 (SEQ ID NO:1), transfected into cells as miR-192 precursor (Ambion) (nucleic acid, delivered as precursor, further chemistry not given here) GCCGAGACCGAGUGCACAGGGCUCUGACCUAUGAAUUGACAGCCAGUGCUCUCGUCUCCCCUCUGGCUGCCAAUUCCAUAGGUCACAGGUAUGUUCGCCUCAAUGCCAGC",increase in expression of p21,p21 [1],10 fold
same,expression of Bax,Bax,not altered
same,increase in expression of the p53 protein,p53,over 10 fold
same,p21 protein level,p21 [2],significant increase
same,cell cycle profile G1,HCT-116 (null-p53) cells [3]; [5],35.65%
same,cell cycle profile G1/S,HCT-116 (null-p53) cells [3]; [5],0.79 ratio (unitless)
same,cell cycle profile G2,HCT-116 (null-p53) cells [3]; [5],19.06%
same,cell cycle profile G2/S,HCT-116 (null-p53) cells [3]; [5],0.42 ratio (unitless)
same,cell cycle profile S,HCT-116 (null-p53) cells [3]; [5],45.29%
same,G1 and G2 arrest,HCT-116 (null-p53) cells [3]; HCT-116 (null-p53),has not been observed
same,suppression of cellular proliferation,HT-29 (mut-p53) cells,24%
same,suppression of cellular proliferation,HCT-116 (null-p53) cells [4],15%
same,suppression of cellular proliferation,RKO (wt-p53) cells,48%
same,suppression of cellular proliferation,HCT-116 (wt-p53) cells,over 55%
same,expression of Rb,Rb,decreased expression
same,TS mRNA expression,TS mRNA,no reduction
